The labels stand for the following.
T1: FcγRIIa R (FcγRIIa, allotype with Arg at position 131), extracellular domain with C-terminal His tag (human, UniProt P12318 34-217)
T1 construct: extracellular domain; also called FcγRIIa R type; 2aR
T1 sequence (looked up): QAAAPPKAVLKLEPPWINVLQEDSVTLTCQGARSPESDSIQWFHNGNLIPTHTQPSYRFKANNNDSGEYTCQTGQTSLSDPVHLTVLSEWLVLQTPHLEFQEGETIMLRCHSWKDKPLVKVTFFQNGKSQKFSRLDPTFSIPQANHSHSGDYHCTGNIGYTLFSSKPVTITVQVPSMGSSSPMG

B1: GpH7-A5/GpH7-B3 variant Y296_04F/GpL16-k0 (antibody, human IgG1, kappa)
heavy 1: not shown
heavy 2: not shown
light: DIVMTQSPLSLPVTPGEPASISCQASESLVHSNRNTYLHWYLQKPGQSPQLLIYKVSNRFSGVPDRFSGSGSGTDFTLKISRVEAEDVGVYYCSQNTHVPPTFGQGTKVEIERTVAAPSVFIFPPSDEQLKSGTASVVCLLNNFYPREAKVQWKVDNALQSGNSQESVTEQDSKDSTYSLSSTLTLSKADYEKHKVYACEVTHQGLSSPVTKSFNRGEC
notes: also called He Ab
B2: GpH7-A5/GpH7-B3 variant V266_06M/GpL16-k0 (antibody, human IgG1, kappa)
heavy 1: not shown
heavy 2: not shown
light: B1 light
notes: also called He Ab
B3: GpH7-A5/GpH7-B3 variant S239_08L/GpL16-k0 (antibody, human IgG1, kappa)
heavy 1: not shown
heavy 2: not shown
light: B1 light
notes: also called He Ab
B4: GpH7-A5/GpH7-B3 variant S337_03V/GpL16-k0 (antibody, human IgG1, kappa)
heavy 1: not shown
heavy 2: not shown
light: B1 light
notes: also called He Ab
B5: GpH7-A5/GpH7-B3 variant T335_02A/GpL16-k0 (antibody, human IgG1, kappa)
heavy 1: not shown
heavy 2: not shown
light: B1 light
notes: also called He Ab
B6: GpH7-A5/GpH7-B3 variant T335_19Q/GpL16-k0 (antibody, human IgG1, kappa)
heavy 1: not shown
heavy 2: not shown
light: B1 light
notes: also called He Ab
B7: GpH7-A5/GpH7-B3 variant S267_19Q/GpL16-k0 (antibody, human IgG1, kappa)
heavy 1: not shown
heavy 2: not shown
light: B1 light
notes: also called He Ab
B8: GpH7-A5/GpH7-B3 variant S267_06M/GpL16-k0 (antibody, human IgG1, kappa)
heavy 1: not shown
heavy 2: not shown
light: B1 light
notes: also called He Ab
B9: GpH7-A5/GpH7-B3 variant Y296_09D/GpL16-k0 (antibody, human IgG1, kappa)
heavy 1: not shown
heavy 2: not shown
light: B1 light
notes: also called He Ab
B10: GpH7-A5/GpH7-B3 variant T335_18N/GpL16-k0 (antibody, human IgG1, kappa)
heavy 1: not shown
heavy 2: not shown
light: B1 light
notes: also called He Ab
B11: GpH7-A5/GpH7-B3 variant Y296_14T/GpL16-k0 (antibody, human IgG1, kappa)
heavy 1: not shown
heavy 2: not shown
light: B1 light
notes: also called He Ab
B12: GpH7-A5/GpH7-B3 variant Y296_10E/GpL16-k0 (antibody, human IgG1, kappa)
heavy 1: not shown
heavy 2: not shown
light: B1 light
notes: also called He Ab
B13: GpH7-A5/GpH7-B3 variant S239_06M/GpL16-k0 (antibody, human IgG1, kappa)
heavy 1: not shown
heavy 2: not shown
light: B1 light
notes: also called He Ab
B14: GpH7-A5/GpH7-B3 variant S239_10E/GpL16-k0 (antibody, human IgG1, kappa)
heavy 1: not shown
heavy 2: not shown
light: B1 light
notes: also called He Ab
B15: GpH7-A5/GpH7-B3 variant Y296_19Q/GpL16-k0 (antibody, human IgG1, kappa)
heavy 1: not shown
heavy 2: not shown
light: B1 light
notes: also called He Ab
B16: GpH7-A5/GpH7-B3 variant S298_08L/GpL16-k0 (antibody, human IgG1, kappa)
heavy 1: not shown
heavy 2: not shown
light: B1 light
notes: also called He Ab
B17: GpH7-A5/GpH7-B3 variant T335_13S/GpL16-k0 (antibody, human IgG1, kappa)
heavy 1: not shown
heavy 2: not shown
light: B1 light
notes: also called He Ab
B18: GpH7-A5/GpH7-B3 variant S267_03V/GpL16-k0 (antibody, human IgG1, kappa)
heavy 1: not shown
heavy 2: not shown
light: B1 light
notes: also called He Ab
B19: GpH7-A5/GpH7-B3 variant S324_06M/GpL16-k0 (antibody, human IgG1, kappa)
heavy 1: not shown
heavy 2: not shown
light: B1 light
notes: also called He Ab
B20: GpH7-A5/GpH7-B3 variant S337_10E/GpL16-k0 (antibody, human IgG1, kappa)
heavy 1: not shown
heavy 2: not shown
light: B1 light
notes: also called He Ab
B21: GpH7-A5/GpH7-B3 variant Y296_18N/GpL16-k0 (antibody, human IgG1, kappa)
heavy 1: not shown
heavy 2: not shown
light: B1 light
notes: also called He Ab
B22: GpH7-A5/GpH7-B3 variant S298_06M/GpL16-k0 (antibody, human IgG1, kappa)
heavy 1: not shown
heavy 2: not shown
light: B1 light
notes: also called He Ab
B23: GpH7-A5/GpH7-B3 variant T335_16H/GpL16-k0 (antibody, human IgG1, kappa)
heavy 1: not shown
heavy 2: not shown
light: B1 light
notes: also called He Ab
B24: GpH7-A5/GpH7-B3 variant Y296_06M/GpL16-k0 (antibody, human IgG1, kappa)
heavy 1: not shown
heavy 2: not shown
light: B1 light
notes: also called He Ab
B25: GpH7-A5/GpH7-B3 variant S337_08L/GpL16-k0 (antibody, human IgG1, kappa)
heavy 1: not shown
heavy 2: not shown
light: B1 light
notes: also called He Ab
B26: GpH7-A5/GpH7-B3 variant T335_01G/GpL16-k0 (antibody, human IgG1, kappa)
heavy 1: not shown
heavy 2: not shown
light: B1 light
notes: also called He Ab
B27: GpH7-A5/GpH7-B3 variant S239_14T/GpL16-k0 (antibody, human IgG1, kappa)
heavy 1: not shown
heavy 2: not shown
light: B1 light
notes: also called He Ab

In this assay the target is T1, FcγRIIa R (FcγRIIa, allotype with Arg …). Briefly: SPR (Biacore), antibody captured on antigen peptide chip, FcγR as analyte; relative binding.
For the molecule B1, the He/Con_2aR was 109 % of GpH7-A5/GpH7-B3/GpL16-k0 (=100).

Take B2: the He/Con_2aR was 150 % of GpH7-A5/GpH7-B3/GpL16-k0 (=100).

For B3, the He/Con_2aR is 122 % of GpH7-A5/GpH7-B3/GpL16-k0 (=100).

For B4, the He/Con_2aR was 106 % of GpH7-A5/GpH7-B3/GpL16-k0 (=100). In the case of B5 it was 102 % of GpH7-A5/GpH7-B3/GpL16-k0 (=100); in that of B6, 106 % of GpH7-A5/GpH7-B3/GpL16-k0 (=100); in that of B7, 135 % of GpH7-A5/GpH7-B3/GpL16-k0 (=100). Then B8, with 122 % of GpH7-A5/GpH7-B3/GpL16-k0 (=100).

With B9, the He/Con_2aR is 106 % of GpH7-A5/GpH7-B3/GpL16-k0 (=100).

As for B10, the He/Con_2aR was 106 % of GpH7-A5/GpH7-B3/GpL16-k0 (=100). In the case of B11 it was 103 % of GpH7-A5/GpH7-B3/GpL16-k0 (=100); in that of B12, 103 % of GpH7-A5/GpH7-B3/GpL16-k0 (=100); in that of B13, 101 % of GpH7-A5/GpH7-B3/GpL16-k0 (=100). In the case of B14 it was 135 % of GpH7-A5/GpH7-B3/GpL16-k0 (=100). Then B15, with 102 % of GpH7-A5/GpH7-B3/GpL16-k0 (=100); and B16, with 105 % of GpH7-A5/GpH7-B3/GpL16-k0 (=100); and B17, with 110 % of GpH7-A5/GpH7-B3/GpL16-k0 (=100). Consider B18, for which the He/Con_2aR was 116 % of GpH7-A5/GpH7-B3/GpL16-k0 (=100).

Regarding B19, the He/Con_2aR is 123 % of GpH7-A5/GpH7-B3/GpL16-k0 (=100). Then B20, with 112 % of GpH7-A5/GpH7-B3/GpL16-k0 (=100); and B21, with 104 % of GpH7-A5/GpH7-B3/GpL16-k0 (=100).

As for B22, the He/Con_2aR is 108 % of GpH7-A5/GpH7-B3/GpL16-k0 (=100).

For the molecule B23, the He/Con_2aR is 108 % of GpH7-A5/GpH7-B3/GpL16-k0 (=100). Then B24, with 101 % of GpH7-A5/GpH7-B3/GpL16-k0 (=100). For B25, the He/Con_2aR is 107 % of GpH7-A5/GpH7-B3/GpL16-k0 (=100). Then B26, with 104 % of GpH7-A5/GpH7-B3/GpL16-k0 (=100); and B27, with 103 % of GpH7-A5/GpH7-B3/GpL16-k0 (=100).
